PMC13066552 (Nature Communications, 2026)

What was measured:
[1] = molecular target: Bpa 31-146 (Mycobacterium tuberculosis) (UniProt P9WKX3); test: NMR titration
[2] = molecular target: the molecule itself; test: methyl-TROSY NMR spectra compared
native MS = molecular target: the molecule itself; test: native MS

DNA-binding domain of human Telomeric Repeat-binding Factor 1 (residues 378-430) (domain or fragment)
Kd [1]: 1.5 µM

B1: Bpa 31-146 (domain or fragment)
chain: DSDESSLTDLVEQPAKVMRIGTMIKQLLEEVRAAPLDEASRNRLRDIHATSIRELEDGLAPELREELDRLTLPFNEDAVPSDAELRIAQAQLVGWLEGLFHGIQTALFAQQMAARA
stoichiometry N [2]: 12 subunits

B2: Mycobacterium tuberculosis bacterial proteasome activator Bpa, full-length wild type (natural protein)
chain: MVIGLSTGSDDDDVEVIGGVDPRLIAVQENDSDESSLTDLVEQPAKVMRIGTMIKQLLEEVRAAPLDEASRNRLRDIHATSIRELEDGLAPELREELDRLTLPFNEDAVPSDAELRIAQAQLVGWLEGLFHGIQTALFAQQMAARAQLQQMRQGALPPGVGKSGQHGHGTGQYL
stoichiometry N (native MS): 2 subunits
